For data set [1], the target named is T1, CcrM (Caulobacter crescentus, UniProt P0CAW2 1-358). In words: X-ray crystallography (2.7 A); sinefungin; Co-crystallization: protein stock in 20 mM HEPES pH 8.0, 300 mM NaCl, 5% glycerol, 0.5 mM TCEP; ~1:1 monomer:duplex (~56 uM), 5x sinefungin; well 0.1 M HEPES pH 7.8, 10% PEG 8000, 3% PEG 6000; 19 C. The settings on record: protein: recombinant; tags: N-terminal His-tag; chain copies: 2; 5' overhang 1 nt on each strand, 18 bp.

Data set [2] concerns the target T1, CcrM. In words: X-ray crystallography (2.34 A); sinefungin; Co-crystallization: protein stock in 20 mM HEPES pH 8.0, 300 mM NaCl, 5% glycerol, 0.5 mM TCEP; ~1:1 monomer:duplex (~56 uM), 5x sinefungin; well 0.1 M HEPES pH 7.8, 10% PEG 8000, 3% PEG 6000; 19 C. The settings on record: protein: recombinant; tags: N-terminal His-tag; chain copies: 2; 5' overhang 1 nt on each strand (C and G), 18 bp.

T1 sequence (P0CAW2 whole entry): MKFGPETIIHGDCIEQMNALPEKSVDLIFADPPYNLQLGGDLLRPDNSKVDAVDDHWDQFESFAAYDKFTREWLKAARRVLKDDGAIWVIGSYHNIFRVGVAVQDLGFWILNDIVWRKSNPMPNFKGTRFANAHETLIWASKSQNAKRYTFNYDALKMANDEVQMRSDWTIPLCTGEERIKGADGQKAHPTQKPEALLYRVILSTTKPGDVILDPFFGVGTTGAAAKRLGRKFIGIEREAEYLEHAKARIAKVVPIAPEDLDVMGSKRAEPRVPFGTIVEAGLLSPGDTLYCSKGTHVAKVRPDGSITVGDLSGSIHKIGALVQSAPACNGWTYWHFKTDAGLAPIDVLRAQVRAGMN

B1: Hemimethylated GAATC duplex (dsDNA)
DNA 1: CGATTCAATGAATCCCAAG
DNA 2: GCTTGGGATTCATTGAATC
modifications: N6-methyladenine (printed M) at position 8 of strand 2 (GATTC, non-target strand)
For the molecule B1, in the data set with CcrM [1], the binding result is given as “binds”.

B2: GAATC 18-bp duplex with 1-nt overhangs (dsDNA)
DNA 1: CGATTCAATGAATCCCAAG
DNA 2: GCTTGGGATTCATTGAATC
B2: the binding result in the data set with CcrM [2] is recorded as “binds”.

The values above are taken from publication PMC6787082, “The cell cycle-regulated DNA adenine methyltransferase CcrM opens a bubble at its DNA recognition site”.
